Laboratory results from article PMC10130016, “Millisecond cryo-trapping by the spitrobot crystal plunger simplifies time-resolved crystallography” (Nature Communications, 2023).

Target: T1, Salmonella typhimurium tryptophan synthase TrpB subunit (Salmonella typhimurium, UniProt P0A2K1 1-397, pyridoxal 5'-phosphate (PLP) as internal aldimine; Lys87 named in the active site)
T1 construct: Tryptophan synthase beta chain (TrpB), Salmonella typhimurium; also called TS β-subunit
T1 sequence: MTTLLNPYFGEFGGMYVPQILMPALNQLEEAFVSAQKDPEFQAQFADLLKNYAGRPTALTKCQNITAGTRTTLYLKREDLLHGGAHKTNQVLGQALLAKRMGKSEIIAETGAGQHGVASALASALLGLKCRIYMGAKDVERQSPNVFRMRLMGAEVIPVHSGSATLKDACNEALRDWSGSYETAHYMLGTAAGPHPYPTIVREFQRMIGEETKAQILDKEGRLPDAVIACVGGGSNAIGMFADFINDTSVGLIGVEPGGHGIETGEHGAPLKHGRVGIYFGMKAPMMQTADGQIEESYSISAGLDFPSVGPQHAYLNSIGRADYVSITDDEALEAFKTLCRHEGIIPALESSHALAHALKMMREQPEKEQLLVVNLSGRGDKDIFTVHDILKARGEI
Assay: crystal structure; TrpAB complex purified together; crystals from 17% (w/v) PEG 300, 0.1 M Tris-HCl pH 7.5, 20 mM cesium chloride, 18 °C, hanging drop; space group C 2, one TrpA and one TrpB in the asymmetric unit; cryo-trapped 0, 20, 25 and 30 s after LAMA mixing with indole, serine and G3P
Conditions: both partners purified

B1: Salmonella typhimurium tryptophan synthase TrpA subunit (enzyme)
chain: MERYENLFAQLNDRREGAFVPFVTLGDPGIEQSLKIIDTLIDAGADALELGVPFSDPLADGPTIQNANLRAFAAGVTPAQCFEMLALIREKHPTIPIGLLMYANLVFNNGIDAFYARCEQVGVDSVLVADVPVEESAPFRQAALRHNIAPIFICPPNADDDLLRQVASYGRGYTYLLSRSGVTGAENRGALPLHHLIEKLKEYHAAPALQGFGISSPEQVSAAVRAGAAGAISGSAIVKIIEKNLASPKQMLAELRSFVSAMKAASRA
notes: Tryptophan synthase alpha chain (TrpA), Salmonella typhimurium; also called TS alpha subunit
binding result: binds
